Measurements as given in article PMC7082571, “Two New Unspecific Peroxygenases from Heterologous Expression of Fungal Genes in Escherichia coli” (Applied and Environmental Microbiology, 2020).

What was measured:
[1] = biological target: T1, rDcaUPO (D. caldariorum UPO) (Daldinia caldariorum, UniProt A0AAN0NP18); assay: veratraldehyde formation at […] nm, substrate inhibition model; format: biochemical; settings: 1 mM H2O2, 0.1 M acetate, optimal pH (Fig. S6), 25°C
T1 construct: codon-optimised gene in pET28, poly-His tag (thrombin-cleavable, no effect on activity), soluble in E. coli C41; 29,609 Da calculated, 55 kDa by SEC (most probably dimer)

[2] = biological target: T2, rCviUPO (C. virescens UPO) (Achaetomiella virescens, UniProt Z9FBJ6W4Y2); assay: veratraldehyde formation at […] nm; format: biochemical; settings: 1 mM H2O2, 0.1 M acetate, optimal pH (Fig. S6), 25°C
T2 construct: codon-optimised gene in pET23a, untagged, soluble in E. coli C41; 29,616 Da calculated, 52 kDa by SEC (most probably dimer); heme-thiolate
T2 sequence (Z9FBJ6W4Y2 1-226): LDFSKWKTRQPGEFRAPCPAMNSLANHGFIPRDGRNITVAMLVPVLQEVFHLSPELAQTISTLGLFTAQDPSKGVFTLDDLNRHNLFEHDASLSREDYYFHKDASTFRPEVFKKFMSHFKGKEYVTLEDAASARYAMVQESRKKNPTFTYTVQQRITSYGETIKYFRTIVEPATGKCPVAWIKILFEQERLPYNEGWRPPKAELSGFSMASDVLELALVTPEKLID

[3] = biological target: T3, rCviUPO (C. virescens UPO) (Achaetomiella virescens, UniProt Z9FBJ6W4Y2, F87L, form not given); assay: veratraldehyde formation at […] nm; format: biochemical; settings: 1 mM H2O2, 0.1 M acetate, optimal pH (Fig. S10), 25°C
T3 construct: codon-optimised gene in pET23a, untagged, soluble in E. coli C41; 29,616 Da calculated, 52 kDa by SEC (most probably dimer); heme-thiolate
T3 sequence (Z9FBJ6W4Y2 1-226 F87L): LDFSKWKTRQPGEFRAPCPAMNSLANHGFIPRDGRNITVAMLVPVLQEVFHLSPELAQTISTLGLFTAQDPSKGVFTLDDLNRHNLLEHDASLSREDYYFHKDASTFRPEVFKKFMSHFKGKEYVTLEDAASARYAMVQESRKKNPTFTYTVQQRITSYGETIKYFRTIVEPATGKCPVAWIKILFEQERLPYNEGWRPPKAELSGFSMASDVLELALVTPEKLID

[4] = biological target: T4, rCviUPO (C. virescens UPO) (Achaetomiella virescens, UniProt Z9FBJ6W4Y2, T157F, form not given); assay: veratraldehyde formation at […] nm; format: biochemical; settings: 1 mM H2O2, 0.1 M acetate, optimal pH (Fig. S10), 25°C
T4 construct: codon-optimised gene in pET23a, untagged, soluble in E. coli C41; 29,616 Da calculated, 52 kDa by SEC (most probably dimer); heme-thiolate
T4 sequence (Z9FBJ6W4Y2 1-226 T157F): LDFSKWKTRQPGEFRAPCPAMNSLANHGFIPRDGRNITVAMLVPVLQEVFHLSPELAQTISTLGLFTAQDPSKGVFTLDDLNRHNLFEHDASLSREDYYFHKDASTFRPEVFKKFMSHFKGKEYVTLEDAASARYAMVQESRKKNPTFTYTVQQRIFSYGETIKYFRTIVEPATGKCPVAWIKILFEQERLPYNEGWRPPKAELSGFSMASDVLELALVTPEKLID

[5] = biological target: T4, rCviUPO (C. virescens UPO); assay: benzaldehyde formation at […] nm; format: biochemical; settings: 1 mM H2O2, 0.1 M Tris, optimal pH (Fig. S10), 25°C
[6] = biological target: T2, rCviUPO (C. virescens UPO); assay: benzaldehyde formation at […] nm, Hill fit; format: biochemical; settings: 1 mM H2O2, 0.1 M Tris, optimal pH (Fig. S6), 25°C; sigmoidal, nH 1.6 ± 0.2
[7] = biological target: T1, rDcaUPO (D. caldariorum UPO); assay: benzaldehyde formation at […] nm, substrate inhibition model; format: biochemical; settings: 1 mM H2O2, 0.1 M Tris, optimal pH (Fig. S6), 25°C
[8] = biological target: T3, rCviUPO (C. virescens UPO); assay: benzaldehyde formation at […] nm; format: biochemical; settings: 1 mM H2O2, 0.1 M Tris, optimal pH (Fig. S10), 25°C
[9] = biological target: recombinant Daldinia caldariorum unspecific peroxygenase (Daldinia caldariorum); assay: SEC; Sepharose 12 10/300 column, 10 mM Tris (pH 7.4) with 0.15 M NaCl, calibrated with ferritin, aldolase, bovine serum albumin, ovalbumin, carbonic anhydrase and aprotinin; native mass compared with SDS-PAGE under reducing conditions
purified protein [10] = substrate: COc1ccc(CO)cc1OC; assay: purified protein; format: biochemical, Daldinia caldariorum; settings: 1 mM H2O2, 0.1 M acetate, optimal pH (Fig. S6), 25°C
purified protein [11] = substrate: c1ccc2ccccc2c1; assay: purified protein; format: biochemical, Daldinia caldariorum; settings: 1 mM H2O2, 0.1 M tartrate with 5% ethanol, optimal pH (Fig. S6), 25°C, Methods say Hill fit, Results say Michaelis-Menten
purified protein [12] = substrate: OCc1ccccc1; assay: purified protein; format: biochemical, Daldinia caldariorum; settings: 1 mM H2O2, 0.1 M Tris, optimal pH (Fig. S6), 25°C
purified protein [13] = substrate: CCn1c(=NN=c2sc3cc(S(=O)(=O)O)ccc3n2CC)sc2cc(S(=O)(=O)O)ccc21; assay: purified protein; format: biochemical, Daldinia caldariorum; settings: 1 mM H2O2, 0.1 M acetate, optimal pH (Fig. S6), 25°C
[14] = biological target: the molecule itself; assay: SEC; Sepharose 12 10/300 column, 10 mM Tris (pH 7.4) with 0.15 M NaCl, calibrated with ferritin, aldolase, bovine serum albumin, ovalbumin, carbonic anhydrase and aprotinin; native mass compared with SDS-PAGE under reducing conditions

COc1ccc(CO)cc1OC [veratryl alcohol] was tested, and the “Ki (μM)” value [1] was 45,400 ± 7,000 μM, the Km [2] was 2940 µM and the Km [3] was 1150 µM. The Km [4] was 3970 µM.

For OCc1ccccc1 [benzyl alcohol], the Km [5] was 1870 µM, the Km [6] was 7100 µM and the “Ki (μM)” value [7] was 9,280 ± 2,270 μM. It also gave a Km [8] of 623 ± 111 µM.

For “recombinant Daldinia caldariorum unspecific peroxygenase (enzyme)”, the stoichiometry N [9] was 2.

B1: rDcaUPO (D. caldariorum UPO) (Daldinia caldariorum) (protein)
chain: MAPWKAPGPDDVRGPCPMLNTLANHGFLPHDGKNIDVNTTVNALSSALNLDDELSRDLHTFAVTTNPQPNATWFSLNHLSRHNVLEHDASLSRQDAYFGPPDVFNAAVFNETKAYWTGDIINFQMAANALTARLMTSNLTNPEFSMSQLGRGFGLGETVCYVTILGSKETRTVPKAFVEYLFENERLPYELGFKKMKSALTEDELTTMMGEIYSLQHLPESFTKPFAKRSEAPFEKRAEKRCPFH
notes: codon-optimised gene in pET28, poly-His tag (thrombin-cleavable, no effect on activity), soluble in E. coli C41; 29,609 Da calculated, 55 kDa by SEC (most probably dimer)
B1 was tested, and the Km (purified protein [10]) was 160 ± 22 µM, the kcat (purified protein [10]) was 2.39 ± 0.09 s⁻¹ and the kcat/Km (purified protein [10]) was 14800 ± 2100 M⁻¹ s⁻¹. The Km (purified protein [11]) was 332 ± 81 µM, the kcat (purified protein [11]) was 22.1 ± 1.92 s⁻¹ and the kcat/Km (purified protein [11]) was 66800 ± 17300 M⁻¹ s⁻¹. The Km (purified protein [12]) was 179 ± 36 µM, the kcat (purified protein [12]) was 16.1 ± 1.19 s⁻¹ and the kcat/Km (purified protein [12]) was 90000 ± 19000 M⁻¹ s⁻¹. It also gave a Km (purified protein [13]) of 59 ± 6 µM, a kcat (purified protein [13]) of 6.73 ± 0.14 s⁻¹ and a kcat/Km (purified protein [13]) of 114000 ± 10500 M⁻¹ s⁻¹.

B2: recombinant Collariella virescens unspecific peroxygenase (enzyme)
chain: ALDFSKWKTRQPGEFRAPCPAMNSLANHGFIPRDGRNITVAMLVPVLQEVFHLSPELAQTISTLGLFTAQDPSKGVFTLDDLNRHNLFEHDASLSREDYYFHKDASTFRPEVFKKFMSHFKGKEYVTLEDAASARYAMVQESRKKNPTFTYTVQQRITSYGETIKYFRTIVEPATGKCPVAWIKILFEQERLPYNEGWRPPKAELSGFSMASDVLELALVTPEKLID
For B2, the “stoichiometry N” value [14] was 2.
